These binders were tested against CD33 (Sino Biological, Cat #12238-H08H) (UniProt P20138 18-259) (assay: BLI, IgG captured on anti-human Fc sensor, 50 nM CD33, pH 7.4 vs pH 5.4).
Chain of CD33 (Sino Biological, Cat #12238-H08H) (P20138 18-259 limits assumed): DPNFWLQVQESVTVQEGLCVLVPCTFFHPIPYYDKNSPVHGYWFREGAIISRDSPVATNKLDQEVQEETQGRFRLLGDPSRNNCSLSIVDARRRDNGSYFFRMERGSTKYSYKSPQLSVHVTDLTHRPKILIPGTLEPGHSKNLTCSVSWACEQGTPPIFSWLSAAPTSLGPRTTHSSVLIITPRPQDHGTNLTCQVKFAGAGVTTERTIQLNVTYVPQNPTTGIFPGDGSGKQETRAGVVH

Binder	binding result
MYT1223 (antibody, V domains shown, IgG; IMGN779 VH variant #11 (V50H)) VH: QVQLQQPGAEVVKPGASVKMSCKASGYTFTSYYIHWIKQTPGQGLEWVGHIYPGNDDISYNQKFQGKATLTADKSSTTAYMQLSSLTSEDSAVYYCAREVRLRYFDVWGQGTTVTVSS VL: EIVLTQSPGSLAVSPGERVTMSCKSSQSVFFSSSQKNYLAWYQQIPGQSPRLLIYWASTRESGVPDRFTGSGSGTDFTLTISSVQPEDLAIYYCHQYLSSRTFGQGTKLEIK	binds
MYT1230 (antibody, V domains shown, IgG; IMGN779 VH variant #18 (D57H)) VH: QVQLQQPGAEVVKPGASVKMSCKASGYTFTSYYIHWIKQTPGQGLEWVGVIYPGNDHISYNQKFQGKATLTADKSSTTAYMQLSSLTSEDSAVYYCAREVRLRYFDVWGQGTTVTVSS VL: EIVLTQSPGSLAVSPGERVTMSCKSSQSVFFSSSQKNYLAWYQQIPGQSPRLLIYWASTRESGVPDRFTGSGSGTDFTLTISSVQPEDLAIYYCHQYLSSRTFGQGTKLEIK	binds
MYT1245 (antibody, V domains shown, IgG; IMGN779 VH variant #33 (L102H)) VH: QVQLQQPGAEVVKPGASVKMSCKASGYTFTSYYIHWIKQTPGQGLEWVGVIYPGNDDISYNQKFQGKATLTADKSSTTAYMQLSSLTSEDSAVYYCAREVRHRYFDVWGQGTTVTVSS VL: EIVLTQSPGSLAVSPGERVTMSCKSSQSVFFSSSQKNYLAWYQQIPGQSPRLLIYWASTRESGVPDRFTGSGSGTDFTLTISSVQPEDLAIYYCHQYLSSRTFGQGTKLEIK	binds
MYT1234 (antibody, V domains shown, IgG; IMGN779 VH variant #22 (N61H)) VH: QVQLQQPGAEVVKPGASVKMSCKASGYTFTSYYIHWIKQTPGQGLEWVGVIYPGNDDISYHQKFQGKATLTADKSSTTAYMQLSSLTSEDSAVYYCAREVRLRYFDVWGQGTTVTVSS VL: EIVLTQSPGSLAVSPGERVTMSCKSSQSVFFSSSQKNYLAWYQQIPGQSPRLLIYWASTRESGVPDRFTGSGSGTDFTLTISSVQPEDLAIYYCHQYLSSRTFGQGTKLEIK	binds
MYT1227 (antibody, V domains shown, IgG; IMGN779 VH variant #15 (G54H)) VH: QVQLQQPGAEVVKPGASVKMSCKASGYTFTSYYIHWIKQTPGQGLEWVGVIYPHNDDISYNQKFQGKATLTADKSSTTAYMQLSSLTSEDSAVYYCAREVRLRYFDVWGQGTTVTVSS VL: EIVLTQSPGSLAVSPGERVTMSCKSSQSVFFSSSQKNYLAWYQQIPGQSPRLLIYWASTRESGVPDRFTGSGSGTDFTLTISSVQPEDLAIYYCHQYLSSRTFGQGTKLEIK	binds
MYT1226 (antibody, V domains shown, IgG; IMGN779 VH variant #14 (P53H)) VH: QVQLQQPGAEVVKPGASVKMSCKASGYTFTSYYIHWIKQTPGQGLEWVGVIYHGNDDISYNQKFQGKATLTADKSSTTAYMQLSSLTSEDSAVYYCAREVRLRYFDVWGQGTTVTVSS VL: EIVLTQSPGSLAVSPGERVTMSCKSSQSVFFSSSQKNYLAWYQQIPGQSPRLLIYWASTRESGVPDRFTGSGSGTDFTLTISSVQPEDLAIYYCHQYLSSRTFGQGTKLEIK	binds
MYT1225 (antibody, V domains shown, IgG; IMGN779 VH variant #13 (Y52H)) VH: QVQLQQPGAEVVKPGASVKMSCKASGYTFTSYYIHWIKQTPGQGLEWVGVIHPGNDDISYNQKFQGKATLTADKSSTTAYMQLSSLTSEDSAVYYCAREVRLRYFDVWGQGTTVTVSS VL: EIVLTQSPGSLAVSPGERVTMSCKSSQSVFFSSSQKNYLAWYQQIPGQSPRLLIYWASTRESGVPDRFTGSGSGTDFTLTISSVQPEDLAIYYCHQYLSSRTFGQGTKLEIK	binds
MYT1244 (antibody, V domains shown, IgG; IMGN779 VH variant #32 (R101H)) VH: QVQLQQPGAEVVKPGASVKMSCKASGYTFTSYYIHWIKQTPGQGLEWVGVIYPGNDDISYNQKFQGKATLTADKSSTTAYMQLSSLTSEDSAVYYCAREVHLRYFDVWGQGTTVTVSS VL: EIVLTQSPGSLAVSPGERVTMSCKSSQSVFFSSSQKNYLAWYQQIPGQSPRLLIYWASTRESGVPDRFTGSGSGTDFTLTISSVQPEDLAIYYCHQYLSSRTFGQGTKLEIK	binds
MYT1241 (antibody, V domains shown, IgG; IMGN779 VH variant #29 (R98H)) VH: QVQLQQPGAEVVKPGASVKMSCKASGYTFTSYYIHWIKQTPGQGLEWVGVIYPGNDDISYNQKFQGKATLTADKSSTTAYMQLSSLTSEDSAVYYCAHEVRLRYFDVWGQGTTVTVSS VL: EIVLTQSPGSLAVSPGERVTMSCKSSQSVFFSSSQKNYLAWYQQIPGQSPRLLIYWASTRESGVPDRFTGSGSGTDFTLTISSVQPEDLAIYYCHQYLSSRTFGQGTKLEIK	binds
MYT1243 (antibody, V domains shown, IgG; IMGN779 VH variant #31 (V100H)) VH: QVQLQQPGAEVVKPGASVKMSCKASGYTFTSYYIHWIKQTPGQGLEWVGVIYPGNDDISYNQKFQGKATLTADKSSTTAYMQLSSLTSEDSAVYYCAREHRLRYFDVWGQGTTVTVSS VL: EIVLTQSPGSLAVSPGERVTMSCKSSQSVFFSSSQKNYLAWYQQIPGQSPRLLIYWASTRESGVPDRFTGSGSGTDFTLTISSVQPEDLAIYYCHQYLSSRTFGQGTKLEIK	binds
MYT1237 (antibody, V domains shown, IgG; IMGN779 VH variant #25 (F64H)) VH: QVQLQQPGAEVVKPGASVKMSCKASGYTFTSYYIHWIKQTPGQGLEWVGVIYPGNDDISYNQKHQGKATLTADKSSTTAYMQLSSLTSEDSAVYYCAREVRLRYFDVWGQGTTVTVSS VL: EIVLTQSPGSLAVSPGERVTMSCKSSQSVFFSSSQKNYLAWYQQIPGQSPRLLIYWASTRESGVPDRFTGSGSGTDFTLTISSVQPEDLAIYYCHQYLSSRTFGQGTKLEIK	binds
MYT1236 (antibody, V domains shown, IgG; IMGN779 VH variant #24 (K63H)) VH: QVQLQQPGAEVVKPGASVKMSCKASGYTFTSYYIHWIKQTPGQGLEWVGVIYPGNDDISYNQHFQGKATLTADKSSTTAYMQLSSLTSEDSAVYYCAREVRLRYFDVWGQGTTVTVSS VL: EIVLTQSPGSLAVSPGERVTMSCKSSQSVFFSSSQKNYLAWYQQIPGQSPRLLIYWASTRESGVPDRFTGSGSGTDFTLTISSVQPEDLAIYYCHQYLSSRTFGQGTKLEIK	binds
MYT1231 (antibody, V domains shown, IgG; IMGN779 VH variant #19 (I58H)) VH: QVQLQQPGAEVVKPGASVKMSCKASGYTFTSYYIHWIKQTPGQGLEWVGVIYPGNDDHSYNQKFQGKATLTADKSSTTAYMQLSSLTSEDSAVYYCAREVRLRYFDVWGQGTTVTVSS VL: EIVLTQSPGSLAVSPGERVTMSCKSSQSVFFSSSQKNYLAWYQQIPGQSPRLLIYWASTRESGVPDRFTGSGSGTDFTLTISSVQPEDLAIYYCHQYLSSRTFGQGTKLEIK	binds
MYT1238 (antibody, V domains shown, IgG; IMGN779 VH variant #26 (Q65H)) VH: QVQLQQPGAEVVKPGASVKMSCKASGYTFTSYYIHWIKQTPGQGLEWVGVIYPGNDDISYNQKFHGKATLTADKSSTTAYMQLSSLTSEDSAVYYCAREVRLRYFDVWGQGTTVTVSS VL: EIVLTQSPGSLAVSPGERVTMSCKSSQSVFFSSSQKNYLAWYQQIPGQSPRLLIYWASTRESGVPDRFTGSGSGTDFTLTISSVQPEDLAIYYCHQYLSSRTFGQGTKLEIK	binds
MYT1233 (antibody, V domains shown, IgG; IMGN779 VH variant #21 (Y60H)) VH: QVQLQQPGAEVVKPGASVKMSCKASGYTFTSYYIHWIKQTPGQGLEWVGVIYPGNDDISHNQKFQGKATLTADKSSTTAYMQLSSLTSEDSAVYYCAREVRLRYFDVWGQGTTVTVSS VL: EIVLTQSPGSLAVSPGERVTMSCKSSQSVFFSSSQKNYLAWYQQIPGQSPRLLIYWASTRESGVPDRFTGSGSGTDFTLTISSVQPEDLAIYYCHQYLSSRTFGQGTKLEIK	binds
MYT1229 (antibody, V domains shown, IgG; IMGN779 VH variant #17 (D56H)) VH: QVQLQQPGAEVVKPGASVKMSCKASGYTFTSYYIHWIKQTPGQGLEWVGVIYPGNHDISYNQKFQGKATLTADKSSTTAYMQLSSLTSEDSAVYYCAREVRLRYFDVWGQGTTVTVSS VL: EIVLTQSPGSLAVSPGERVTMSCKSSQSVFFSSSQKNYLAWYQQIPGQSPRLLIYWASTRESGVPDRFTGSGSGTDFTLTISSVQPEDLAIYYCHQYLSSRTFGQGTKLEIK	binds
MYT1224 (antibody, V domains shown, IgG; IMGN779 VH variant #12 (I51H)) VH: QVQLQQPGAEVVKPGASVKMSCKASGYTFTSYYIHWIKQTPGQGLEWVGVHYPGNDDISYNQKFQGKATLTADKSSTTAYMQLSSLTSEDSAVYYCAREVRLRYFDVWGQGTTVTVSS VL: EIVLTQSPGSLAVSPGERVTMSCKSSQSVFFSSSQKNYLAWYQQIPGQSPRLLIYWASTRESGVPDRFTGSGSGTDFTLTISSVQPEDLAIYYCHQYLSSRTFGQGTKLEIK	binds
MYT1228 (antibody, V domains shown, IgG; IMGN779 VH variant #16 (N55H)) VH: QVQLQQPGAEVVKPGASVKMSCKASGYTFTSYYIHWIKQTPGQGLEWVGVIYPGHDDISYNQKFQGKATLTADKSSTTAYMQLSSLTSEDSAVYYCAREVRLRYFDVWGQGTTVTVSS VL: EIVLTQSPGSLAVSPGERVTMSCKSSQSVFFSSSQKNYLAWYQQIPGQSPRLLIYWASTRESGVPDRFTGSGSGTDFTLTISSVQPEDLAIYYCHQYLSSRTFGQGTKLEIK	binds
MYT1239 (antibody, V domains shown, IgG; IMGN779 VH variant #27 (G66H)) VH: QVQLQQPGAEVVKPGASVKMSCKASGYTFTSYYIHWIKQTPGQGLEWVGVIYPGNDDISYNQKFQHKATLTADKSSTTAYMQLSSLTSEDSAVYYCAREVRLRYFDVWGQGTTVTVSS VL: EIVLTQSPGSLAVSPGERVTMSCKSSQSVFFSSSQKNYLAWYQQIPGQSPRLLIYWASTRESGVPDRFTGSGSGTDFTLTISSVQPEDLAIYYCHQYLSSRTFGQGTKLEIK	binds
MYT1235 (antibody, V domains shown, IgG; IMGN779 VH variant #23 (Q62H)) VH: QVQLQQPGAEVVKPGASVKMSCKASGYTFTSYYIHWIKQTPGQGLEWVGVIYPGNDDISYNHKFQGKATLTADKSSTTAYMQLSSLTSEDSAVYYCAREVRLRYFDVWGQGTTVTVSS VL: EIVLTQSPGSLAVSPGERVTMSCKSSQSVFFSSSQKNYLAWYQQIPGQSPRLLIYWASTRESGVPDRFTGSGSGTDFTLTISSVQPEDLAIYYCHQYLSSRTFGQGTKLEIK	binds
MYT1232 (antibody, V domains shown, IgG; IMGN779 VH variant #20 (S59H)) VH: QVQLQQPGAEVVKPGASVKMSCKASGYTFTSYYIHWIKQTPGQGLEWVGVIYPGNDDIHYNQKFQGKATLTADKSSTTAYMQLSSLTSEDSAVYYCAREVRLRYFDVWGQGTTVTVSS VL: EIVLTQSPGSLAVSPGERVTMSCKSSQSVFFSSSQKNYLAWYQQIPGQSPRLLIYWASTRESGVPDRFTGSGSGTDFTLTISSVQPEDLAIYYCHQYLSSRTFGQGTKLEIK	binds
